Results reported in paper PMC5137435.

B1: Fig1 oligo X=A (dsDNA)
DNA 1: AGCGTGGGAGT
DNA 2: TACTCCCACGC
modifications: 5mC at strand 1 pos 3 and strand 2 pos 9
B2: Fig1 oligo X=T (dsDNA)
DNA 1: AGCGTGGGTGT
DNA 2: TACACCCACGC
modifications: 5mC at strand 1 pos 3 and strand 2 pos 9
B3: Fig1 oligo X=G (dsDNA)
DNA 1: AGCGTGGGGGT
DNA 2: TACCCCCACGC
modifications: 5mC at strand 1 pos 3 and strand 2 pos 9

What was measured:
Experiment in all cases: fluorescence polarization
WT1 ZF2-4 Q369H (-KTS) = WT1 ZF2-4 Q369H (-KTS) (Homo sapiens, UniProt P19544-4 350-437, Q369H)
WT1 ZF2-4 Q369R (-KTS) [1] = biological target: T1, WT1 ZF2-4 Q369R (-KTS) (Homo sapiens, UniProt P19544-4 350-437, Q369R)
Egr1 three-finger domain = Egr1 three-finger domain (UniProt P18146 335-423)
WT1 ZF2-4 Q369P (-KTS) = WT1 ZF2-4 Q369P (-KTS) (Homo sapiens, UniProt P19544-4 350-437, Q369P)
WT1 ZF2-4 Q369R (-KTS) [2] = biological target: T1, WT1 ZF2-4 Q369R (-KTS); remark: listed apart in the source
WT1 ZF2-4 Q369K (-KTS) = WT1 ZF2-4 Q369K (-KTS) (Homo sapiens, UniProt P19544-4 350-437, Q369K)

Binder | Kd (WT1 ZF2-4 Q369H (-KTS)) | binding signal (WT1 ZF2-4 Q369R (-KTS) [1]) | binding result (Egr1 three-finger domain) | binding result (WT1 ZF2-4 Q369P (-KTS)) | Kd (WT1 ZF2-4 Q369R (-KTS) [2]) | Kd (WT1 ZF2-4 Q369K (-KTS))
B1 | 8 nM | ~5 fold lower affinity than X=G | – | – | – | –
B2 | – | – | binds | binds | – | –
B3 | < 3 nM | – | – | – | 24 nM | 14 nM
